Measurements from patent US20170037111A1, “Novel peptides and combination of peptides for use in immunotherapy against ovarian cancer and other cancers” (immatics biotechnologies GmbH, priority 2015, published 2017).

Biological target: HLA-A*02:01 (Homo sapiens, UniProt P04439, D140Y/D185E/D98H/E176V/E277Q/G131W/G231S/I119V/I121R/I166T/I218V/L300P/L318F/N151K/N90K/P208A/P217A/Q86G/Q94H/R138H/R169H/T345S)
Experiment: MHC binding assay (UV-ligand exchange, β2m ELISA, peptide exchange yield)
Details: MHC class I binding score; binding to HLA-A*02:01 ranged by peptide exchange yield (UV-ligand exchange, β2m ELISA)
Source text: Candidate peptides for T cell based therapies according to the present invention were further tested for their MHC binding capacity (affinity). The individual peptide-MHC complexes were produced by UV-ligand exchange, where a UV-sensitive peptide is cleaved upon UV-irradiation, and exchanged with the peptide of interest as analyzed. Only peptide candidates that can effectively bind and stabilize the peptide-receptive MHC molecules prevent dissociation of the MHC complexes. To determine the yield of the exchange reaction, an ELISA was performed based on the detection of the light chain (β2m) of stabilized MHC complexes. The assay was performed as generally described in Rodenko et al. (Rodenko et al., 2006).
96 well MAXISorp plates (NUNC) were coated over night with 2 ug/ml streptavidin in PBS at room temperature, washed 4× and blocked for 1h at 37° C. in 2% BSA containing blocking buffer. […] Peptide-MHC monomers of the UV-exchange reaction were diluted 100 fold in blocking buffer. Samples were incubated for 1h at 37° C., washed four times, incubated with 2 ug/ml HRP conjugated anti-β2m for 1h at 37° C., washed again and detected with TMB solution that is stopped with […]. Absorption was measured at 450 nm. Candidate peptides that show a high exchange yield (preferably higher than 50%, most preferred higher than 75%) are generally preferred for a generation and production of antibodies or fragments thereof, and/or T cell receptors or fragments thereof, as they show sufficient avidity to the MHC molecules and prevent dissociation of the MHC complexes.

Row | Substance | Peptide exchange
1 | 276 (ALFTFSPLTV; listed as Homo sapiens) [compound 276] | ″+++″ (≧50% = +++)
2 | 85 (KMSELRVTL; listed as Homo sapiens) [compound 85] | ″+++″ (≧50% = +++)
3 | 106 (LLYDAVHIVSV; listed as Homo sapiens) [compound 106] | ″+++″ (≧50% = +++)
4 | 134 (YLQELIFSV; listed as Homo sapiens) [compound 134] | ″+++″ (≧50% = +++)
5 | 87 (ALPEAPAPLLPHIT; listed as Homo sapiens) [compound 87] | ″++″ (≧20% = ++)
6 | 155 (RVANLHFPSV; listed as Homo sapiens) [compound 155] | ″+++″ (≧50% = +++)
7 | 109 (IILSILEQA; listed as Homo sapiens) [compound 109] | ″++++″ (≧75% = ++++)
8 | 236 (GLLEAKVSL; listed as Homo sapiens) [compound 236] | ″+++″ (≧50% = +++)
9 | 16 (VLFQGQASL; listed as Homo sapiens) [compound 16] | ″+++″ (≧50% = +++)
10 | 102 (YLFESEGLVL; listed as Homo sapiens) [compound 102] | ″+++″ (≧50% = +++)
11 | 94 (YLIDIKTIAI; listed as Homo sapiens) [compound 94] | ″++″ (≧20% = ++)
12 | 168 (KILDADIQL; listed as Homo sapiens) [compound 168] | ″++++″ (≧75% = ++++)
13 | 235 (YLNDLHEVLL; listed as Homo sapiens) [compound 235] | ″++++″ (≧75% = ++++)
14 | 296 (FMEGAIIYV; listed as Homo sapiens) [compound 296] | ″+++″ (≧50% = +++)
15 | 50 (SLSELEALM; listed as Homo sapiens) [compound 50] | ″+++″ (≧50% = +++)
16 | 114 (SLVGEPILQNV; listed as Homo sapiens) [compound 114] | ″++″ (≧20% = ++)
17 | 204 (KIAENVEEV; listed as Homo sapiens) [compound 204] | ″++″ (≧20% = ++)
18 | 256 (FLPPEHTIVYI; listed as Homo sapiens) [compound 256] | ″+++″ (≧50% = +++)
19 | 151 (KILQQLVTL; listed as Homo sapiens) [compound 151] | ″+++″ (≧50% = +++)
20 | 282 (LLADVVPTT; listed as Homo sapiens) [compound 282] | ″+++″ (≧50% = +++)
21 | 267 (ALQDFLLSV; listed as Homo sapiens) [compound 267] | ″+++″ (≧50% = +++)
22 | 210 (LLLNAVLTV; listed as Homo sapiens) [compound 210] | ″++″ (≧20% = ++)

Row | Substance | Peptide exchange
23 | 183 (FGLDLVTEL; listed as Homo sapiens) [compound 183] | ″+++″ (≧50% = +++)
24 | 68 (SLMELPRGLFL; listed as Homo sapiens) [compound 68] | ″++++″ (≧75% = ++++)
25 | 363 (KVLDVSDLESV; listed as Homo sapiens) [compound 363] | ″++″ (≧20% = ++)
26 | 378 (ALGYFVPYV; listed as Homo sapiens) [compound 378] | ″+++″ (≧50% = +++)
27 | 24 (SLSDGLEEV; listed as Homo sapiens) [compound 24] | ″++″ (≧20% = ++)
28 | 285 (QLLHVGVTV; listed as Homo sapiens) [compound 285] | ″+++″ (≧50% = +++)
29 | 228 (AMQEYIAVV; listed as Homo sapiens) [compound 228] | ″++″ (≧20% = ++)
30 | 317 (SLAALVVHV; listed as Homo sapiens) [compound 317] | ″+++″ (≧50% = +++)
31 | 318 (GLINTGVLSV; listed as Homo sapiens) [compound 318] | ″++″ (≧20% = ++)
32 | 97 (SLINGSFLV; listed as Homo sapiens) [compound 97] | ″+++″ (≧50% = +++)
33 | 269 (RVLEVGALQAV; listed as Homo sapiens) [compound 269] | ″++″ (≧20% = ++)
34 | 240 (ILLEQAFYL; listed as Homo sapiens) [compound 240] | ″+++″ (≧50% = +++)
35 | 232 (ALLEAQDVELYL; listed as Homo sapiens) [compound 232] | ″++″ (≧20% = ++)
36 | 175 (YLFENISQL; listed as Homo sapiens) [compound 175] | ″+++″ (≧50% = +++)
37 | 270 (LLLDEEGTFSL; listed as Homo sapiens) [compound 270] | ″++″ (≧20% = ++)
38 | 246 (LLWEVVSQL; listed as Homo sapiens) [compound 246] | ″+++″ (≧50% = +++)
39 | 9 (GAAKDLPGV; listed as Homo sapiens) [compound 9] | ″++″ (≧20% = ++)
40 | 253 (GLDAATATV; listed as Homo sapiens) [compound 253] | ″++″ (≧20% = ++)
41 | 27 (ILADIVISA; listed as Homo sapiens) [compound 27] | ″+++″ (≧50% = +++)
42 | 165 (SLLDEIRAV; listed as Homo sapiens) [compound 165] | ″+++″ (≧50% = +++)
43 | 14 (AAYGGLNEKSFV; listed as Homo sapiens) [compound 14] | ″+++″ (≧50% = +++)
44 | 353 (YLFEMDSSL; listed as Homo sapiens) [compound 353] | ″++″ (≧20% = ++)

Continued, values first:

Row | Peptide exchange | Substance
45 | ″++″ (≧20% = ++) | 451 (LLLLDTVTMQV; listed as Homo sapiens) [compound 451]
46 | ″+++″ (≧50% = +++) | 488 (FLAEDPKVTL; listed as Homo sapiens) [compound 488]
47 | ″++″ (≧20% = ++) | 523 (YQIPRTFTL; listed as Homo sapiens) [compound 523]
48 | ″+++″ (≧50% = +++) | 567 (SLLPLDDIVRV; listed as Homo sapiens) [compound 567]
49 | ″+++″ (≧50% = +++) | 501 (LLDPNVKSIFV; listed as Homo sapiens) [compound 501]
50 | ″+++″ (≧50% = +++) | 617 (ALMYESEKVGV; listed as Homo sapiens) [compound 617]
51 | ″+++″ (≧50% = +++) | 618 (VLFDSESIGIYV; listed as Homo sapiens) [compound 618]
52 | ″+++″ (≧50% = +++) | 594 (IMLKGDNITL; listed as Homo sapiens) [compound 594]
53 | ″+++″ (≧50% = +++) | 544 (LLWDVPAPSL; listed as Homo sapiens) [compound 544]
54 | ″++++″ (≧75% = ++++) | 527 (FLLEPGNLEV; listed as Homo sapiens) [compound 527]
55 | ″+++″ (≧50% = +++) | 452 (ILLEHGADPNL; listed as Homo sapiens) [compound 452]
56 | ″+++″ (≧50% = +++) | 391 (YVYPQRLNFV; listed as Homo sapiens) [compound 391]
57 | ″+++″ (≧50% = +++) | 485 (NVPDSFNEV; listed as Homo sapiens) [compound 485]
58 | ″+++″ (≧50% = +++) | 600 (ALAAPDIVPAL; listed as Homo sapiens) [compound 600]
59 | ″+++″ (≧50% = +++) | 595 (VLLSIYPRV; listed as Homo sapiens) [compound 595]
60 | ″+++″ (≧50% = +++) | 502 (RLLAQVPGL; listed as Homo sapiens) [compound 502]
61 | ″+++″ (≧50% = +++) | 509 (FLFDTKPLIV; listed as Homo sapiens) [compound 509]
62 | ″+++″ (≧50% = +++) | 573 (ILVANAIVGV; listed as Homo sapiens) [compound 573]
63 | ″++″ (≧20% = ++) | 382 (ALQNYIKEA; listed as Homo sapiens) [compound 382]
64 | ″+++″ (≧50% = +++) | 575 (YLISQVEGHQV; listed as Homo sapiens) [compound 575]
65 | ″+++″ (≧50% = +++) | 515 (LLQELVLFL; listed as Homo sapiens) [compound 515]
66 | ″+++″ (≧50% = +++) | 462 (KLAKQPETV; listed as Homo sapiens) [compound 462]
67 | ″++″ (≧20% = ++) | 566 (VIADGGIQNV; listed as Homo sapiens) [compound 566]
68 | ″++″ (≧20% = ++) | 428 (KLGHTDILVGV; listed as Homo sapiens) [compound 428]
69 | ″+++″ (≧50% = +++) | 444 (GLLRDEALAEV; listed as Homo sapiens) [compound 444]
70 | ″+++″ (≧50% = +++) | 564 (TVTNAVVTV; listed as Homo sapiens) [compound 564]
71 | ″+++″ (≧50% = +++) | 388 (SLTIDGIRYV; listed as Homo sapiens) [compound 388]
